Results as given in article PMC4980823 (Science (New York, N.Y.), 2016).
Where two headings read alike, the source gives them in different places.

B1: Rad23 UBL domain (amino acids 1–78) (domain or fragment, yeast, UniProt P32628 1-78, looked up)
chain: MVSLTFKNFKKEKVPLDLEPSNTILETKTKLAQSISCEESQIKLIYSGKVLQDSKTVSECGLKDGDQVVFMVSQKKST
B2: Rpn13 Pru domain (amino acids 1–150), no substitutions (domain or fragment, yeast, UniProt O13563 1-150, looked up)
chain: MSMSSTVIKFRAGVCEYNEDSRLCTPIPVQGEIEIKPNEEEELGFWDFEWRPTEKPVGRELDPISLILIPGETMWVPIKSSKSGRIFALVFSSNERYFFWLQEKNSGNLPLNELSAKDKEIYNKMIGVLNNSSESDEEESNDEKQKAQDV
B3: Rpn1 (412–625) (domain or fragment, yeast, UniProt P38764 412-625, looked up)
chain: GDGMTSAVASIGSIYQWNLDGLQQLDKYLYVDEPEVKAGALLGIGISASGVHDGEVEPALLLLQDYVTNPDTKISSAAILGLGIAFAGSKNDEVLGLLLPIAASTDLPIETAAMASLALAHVFVGTCNGDITTSIMDNFLERTAIELKTDWVRFLALALGILYMGQGEQVDDVLETISAIEHPMTSAIEVLVGSCAYTGTGDVLLIQDLLHRLT

Experiments:
Rpn1 (412–625) = target: B3; test: ITC
ubiquitin [1] = target: T1, ubiquitin (UniProt P0CG48 1-76); test: NMR titration
ubiquitin [2] = target: T1, ubiquitin; test: NMR titration; remark: listed apart in the source
dynamic light scattering = target: the molecule itself; test: dynamic light scattering

Binder: B1
Kd (Rpn1 (412–625)): 64 ± 25 nM

Binder: B2
binding result (ubiquitin [1]): binds

Binder: B3
binding result (ubiquitin [2]): binds | binding result (dynamic light scattering): binds
